± gives the standard deviation of the averaged measurements.
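Also: ATP exposure 15 min at 22 °C before imaging.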

In the data set the test system is ATP. Briefly: switch fluorescence ratio, 500 uM ATP over buffer (Cy3 cluster intensity, sum of 5 cycles each) (fold (ratio)); higher = stronger signal-on switching upon ATP binding; sequences stand for … in TCGTCGGCAGCGTCAGATGTGTATAAGAGACAGTTTTTTTTTTTTTTTTTTTTTTTTT…TC. To be noted: aptamer strand: ATP DNA aptamer (quencher-CACCTGGGGGAGTATTGCGGAGGAAGG + anchor), 100 nM annealed; ATP concentration: 500 uM. Summed up:
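Clusters with intensities outside 100-1000 RFU were excluded. The remaining Cy3-labelled switching-strand clusters on a modified Illumina MiSeq flow-cell had been annealed to 100 nM quencher-labelled ATP aptamer and imaged in selection buffer, then after 15 min with 500 uM ATP at 22 °C, for five cycles separated by NaOH stripping and re-annealing. The fluorescence ratio, averaged per switch-domain sequence, is each cluster's summed target-cycle Cy3 intensity over its summed buffer-cycle Cy3 intensity.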
On to TTGGCATACT, for which the switch fluorescence ratio stood at 2.64 ± 2.2.
Regarding GAGGGGTTGG, the switch fluorescence ratio stood at 0.964 ± 0.033.
In the case of TTTAAATTCG, the switch fluorescence ratio amounted to 1.01 ± 0.014.
On to ACTCATGACG, for which the switch fluorescence ratio came to 1.045 ± 0.0025.
On to GCAGGAGTAG, for which the switch fluorescence ratio was found to be 1.01 ± 0.038.
With GTTTTCAGGT, the switch fluorescence ratio amounted to 0.992 ± 0.037.
The value for GAAATGGGTG was 1.04 ± 0.078; that for TTTTGCGGGT was 0.983 ± 0.032; that for TTTTGAGGGC was 1.01 ± 0.059.
In the case of TTACTTGGGA, the switch fluorescence ratio worked out at 1 ± 0.012.
For ATGGACGGGT, the switch fluorescence ratio was determined as 0.996 ± 0.03.
The value for TTCAGAATTG was 1.0012 ± 0.00092; that for TGTAAACCGG was 1.07 ± 0.042; that for GGATTTTTGT was 0.997 ± 0.022.
For the sequence ATAAAAGTCT, the switch fluorescence ratio worked out at 1.03 ± 0.032.
As to TTTGAAAACT, the switch fluorescence ratio stood at 0.995 ± 0.024.
Consider ACTGTGGGGC, for which the switch fluorescence ratio was 0.9788 ± 0.0057.
The value for TAGGTTAAGG was 1 ± 0.034; that for AAGCATCATA was 0.988 ± 0.021.
Consider CATTTAGGCT, for which the switch fluorescence ratio turned out to be 0.9997 ± 0.0058.
As to AGCTTTTTGT, the switch fluorescence ratio turned out to be 0.947 ± 0.023.
Take GCCTTCGACT: the switch fluorescence ratio was 1.051 ± 0.0017.
For the sequence AAGGCGAGAC, the switch fluorescence ratio stood at 1.06 ± 0.023.
For TTTGGTATTT, the switch fluorescence ratio is 0.984 ± 0.025.
GAATAAATTT: the switch fluorescence ratio is 1.02 ± 0.069.
Regarding GGGGCGGTCC, the switch fluorescence ratio stood at 1.04 ± 0.043.
As for GATGGGAGGT, the switch fluorescence ratio was 1.008 ± 0.0046.
Regarding CCTGTTTTAC, the switch fluorescence ratio was determined as 1.24 ± 0.045.
Take AATTAGGGTG: the switch fluorescence ratio is 1.09 ± 0.05.
Consider ATTTCGGTCA, for which the switch fluorescence ratio was found to be 0.9919 ± 0.0066.
For the sequence CGCGTAGACA, the switch fluorescence ratio was 0.992 ± 0.055.
Consider CTTAGTGCGG, for which the switch fluorescence ratio was 0.978 ± 0.0012.
The value for TTATGAGGCT was 1.01 ± 0.013.
The value for CGGGGCCTAG was 1.01 ± 0.058; that for TTAGGACGCT was 1.03 ± 0.036; that for CATGTGAAGC was 1.014 ± 0.0072.
In the case of AAAGGGACGG, the switch fluorescence ratio was 0.9829 ± 0.0091.
The value for AGGAGTGGTG was 0.994 ± 0.034.
Regarding GAGGAATTTA, the switch fluorescence ratio amounted to 1.02 ± 0.028.
The value for GTCAATTTGT was 1.02 ± 0.018; that for TCATTTCGA was 0.988 ± 0.02; that for TGCAATGTTG was 1.04 ± 0.047.
ATAGGGCG: the switch fluorescence ratio came out at 0.987 ± 0.011.
With TTTCTGTTTC, the switch fluorescence ratio turned out to be 1.04 ± 0.052.
As to TTGTGGGAAT, the switch fluorescence ratio amounted to 1.05 ± 0.077.
In the case of GAGTCTAGCG, the switch fluorescence ratio turned out to be 1.02 ± 0.064.
The value for CCCGAGTATG was 1.034 ± 0.0099; that for TGGTGGGGCA was 0.977 ± 0.064.
With TTAATCTGAG, the switch fluorescence ratio was determined as 1.02 ± 0.012.
Take TAAAGAAGGG: the switch fluorescence ratio was 0.988 ± 0.033.
Turning to TACTCGTTGA, the switch fluorescence ratio was 1.04 ± 0.021.
The value for CCGGGGGATG was 1.03 ± 0.042.
The value for GTCGTGCGTA was 1.03 ± 0.099.
With TTTTGTTCCT, the switch fluorescence ratio was determined as 1.02 ± 0.026.
For the sequence CTTCTATAAC, the switch fluorescence ratio worked out at 1.07 ± 0.02.
As to GGTTTTGGTT, the switch fluorescence ratio came out at 0.986 ± 0.025.
Turning to AATTAATTGG, the switch fluorescence ratio came out at 0.994 ± 0.012.
For the sequence AGTGAATTCA, the switch fluorescence ratio turned out to be 1.016 ± 0.0062.
For the sequence GTCTAAATCG, the switch fluorescence ratio turned out to be 0.981 ± 0.015.
Regarding TACTTTTGAA, the switch fluorescence ratio was 0.977 ± 0.022.
Consider CGTGGATGCG, for which the switch fluorescence ratio came to 1.025 ± 0.0038.
Consider GTTTTATAAA, for which the switch fluorescence ratio was 0.9762 ± 0.0028.
On to AGTGTGGGTA, for which the switch fluorescence ratio is 0.99 ± 0.021.
For the sequence CGGGCTCAAC, the switch fluorescence ratio is 1.033 ± 0.0071.
On to TAAATAGGGT, for which the switch fluorescence ratio amounted to 1.05 ± 0.12.
As to CCTAGGGAAG, the switch fluorescence ratio worked out at 0.9972 ± 0.0046.
With CAGGCTTTTT, the switch fluorescence ratio came out at 1 ± 0.029.
The value for TTGGGTCTGG was 0.965 ± 0.02.
Consider GGTTAATCGG, for which the switch fluorescence ratio is 0.9983 ± 0.0029.
With GGCCAGGAGA, the switch fluorescence ratio was 1.04 ± 0.021.
Take GAAAAAACGT: the switch fluorescence ratio is 1.05 ± 0.038.
Turning to AGATTGGGGC, the switch fluorescence ratio stood at 0.974 ± 0.013.
Take TATTGAGATA: the switch fluorescence ratio worked out at 1.01 ± 0.04.
CGTTTCTAAG: the switch fluorescence ratio was found to be 0.967 ± 0.03.
Take TTGATCAGGC: the switch fluorescence ratio was determined as 0.996 ± 0.016.
The value for AATTAGGGGA was 1 ± 0.014; that for TATTTTTTAT was 1.022 ± 0.0017; that for ATTTGCTCGG was 1.036 ± 0.0097.
The value for GGGGGTGCAT was 0.9638 ± 0.0088; that for AATCGGGTCT was 0.999 ± 0.015.
Turning to ATCTTTTGAG, the switch fluorescence ratio stood at 0.97588 ± 0.00047.
Regarding CGTGTAGTCC, the switch fluorescence ratio was determined as 1.1 ± 0.086.
The value for CTTAGACGTC was 0.948 ± 0.043; that for ACGATGAAGA was 1.009 ± 0.0026; that for TTATAATCCG was 0.988 ± 0.031.
The value for GAGATTATGG was 0.966 ± 0.022; that for TTTTCTTATC was 1.02 ± 0.048.
Regarding AGGGCCAGGT, the switch fluorescence ratio stood at 1.11 ± 0.023.
The value for AGAGGCCGGG was 1 ± 0.032; that for ATCATACACT was 1.06 ± 0.018; that for GAGTAATCGG was 1.01 ± 0.049.
Turning to CCTCGTTGAA, the switch fluorescence ratio came to 1.22 ± 0.026.
Consider GGTTGCTCGG, for which the switch fluorescence ratio was determined as 0.998 ± 0.026.
ATAAGTTTTT: the switch fluorescence ratio turned out to be 1 ± 0.023.
With CTATGAGTTT, the switch fluorescence ratio turned out to be 0.993 ± 0.013.
For CATTGATATG, the switch fluorescence ratio came to 0.9912 ± 0.0091.
With CGTTTACGCC, the switch fluorescence ratio is 1 ± 0.046.
As to TGCATTTAAT, the switch fluorescence ratio was found to be 1.01 ± 0.027.
In the case of CGACTAGCGA, the switch fluorescence ratio was 1.4082 ± 0.00063.
For TGTTGTCTTT, the switch fluorescence ratio was determined as 1.03 ± 0.12.
On to GAGTAAGGTA, for which the switch fluorescence ratio was found to be 1.02 ± 0.024.
Consider TAGATTGGCG, for which the switch fluorescence ratio was 0.981 ± 0.043.
As to ATGGAAGGTT, the switch fluorescence ratio was 0.991 ± 0.033.
As for ATGAATATTA, the switch fluorescence ratio is 0.99254 ± 0.00014.
Take GGGATCAGCT: the switch fluorescence ratio is 1.006 ± 0.0046.
As to AAGTATTATC, the switch fluorescence ratio turned out to be 1.01 ± 0.019.
Consider GTCAGGAAGT, for which the switch fluorescence ratio is 1.02 ± 0.016.
The value for TTGGGCGTGT was 0.987 ± 0.021.
Regarding AATTTTAAGC, the switch fluorescence ratio came out at 0.967 ± 0.041.
On to TTAAGGCTAT, for which the switch fluorescence ratio came to 1.009 ± 0.0065.
The value for ACAGGCGGCT was 1.1 ± 0.061.
Consider AACTGGGACT, for which the switch fluorescence ratio stood at 1.02 ± 0.041.
The value for GACGGCTGTA was 0.991 ± 0.015.
With AGGGCATAGG, the switch fluorescence ratio amounted to 0.9652 ± 0.0066.
With AGCAACCGGT, the switch fluorescence ratio was 1.1 ± 0.016.
In the case of GAGAATTGAA, the switch fluorescence ratio amounted to 0.99 ± 0.014.
Turning to CGCTCTTTTG, the switch fluorescence ratio was 1.02 ± 0.061.
As to CCCTAGGGTT, the switch fluorescence ratio was found to be 1.44 ± 0.56.
Take ACAGCAGCGG: the switch fluorescence ratio was 1.05 ± 0.021.
With TGGTCGCAGC, the switch fluorescence ratio was found to be 1.01 ± 0.018.

The values are drawn from the supplement of paper PMC10126150.
